Experimental data reported in publication PMC4852461, “A closed conformation of the Caenorhabditis elegans separase–securin complex” (Open Biology, 2016).

Target: T1, strep II-tagged full-length C. elegans separase (C. elegans, UniProt G5ED39 1-1262)
T1 construct: separase, Caenorhabditis elegans, full length (residues up to 1262; molecular weight 144.2 kDa); Vector pFBDM-strepII: double strepII tag with a PreScission cleavage site; also called strep II-tagged separase; source: Sf9 insect cells, co-expressed with securin, purified as complex (StrepTactin, SEC)
T1 sequence (looked up): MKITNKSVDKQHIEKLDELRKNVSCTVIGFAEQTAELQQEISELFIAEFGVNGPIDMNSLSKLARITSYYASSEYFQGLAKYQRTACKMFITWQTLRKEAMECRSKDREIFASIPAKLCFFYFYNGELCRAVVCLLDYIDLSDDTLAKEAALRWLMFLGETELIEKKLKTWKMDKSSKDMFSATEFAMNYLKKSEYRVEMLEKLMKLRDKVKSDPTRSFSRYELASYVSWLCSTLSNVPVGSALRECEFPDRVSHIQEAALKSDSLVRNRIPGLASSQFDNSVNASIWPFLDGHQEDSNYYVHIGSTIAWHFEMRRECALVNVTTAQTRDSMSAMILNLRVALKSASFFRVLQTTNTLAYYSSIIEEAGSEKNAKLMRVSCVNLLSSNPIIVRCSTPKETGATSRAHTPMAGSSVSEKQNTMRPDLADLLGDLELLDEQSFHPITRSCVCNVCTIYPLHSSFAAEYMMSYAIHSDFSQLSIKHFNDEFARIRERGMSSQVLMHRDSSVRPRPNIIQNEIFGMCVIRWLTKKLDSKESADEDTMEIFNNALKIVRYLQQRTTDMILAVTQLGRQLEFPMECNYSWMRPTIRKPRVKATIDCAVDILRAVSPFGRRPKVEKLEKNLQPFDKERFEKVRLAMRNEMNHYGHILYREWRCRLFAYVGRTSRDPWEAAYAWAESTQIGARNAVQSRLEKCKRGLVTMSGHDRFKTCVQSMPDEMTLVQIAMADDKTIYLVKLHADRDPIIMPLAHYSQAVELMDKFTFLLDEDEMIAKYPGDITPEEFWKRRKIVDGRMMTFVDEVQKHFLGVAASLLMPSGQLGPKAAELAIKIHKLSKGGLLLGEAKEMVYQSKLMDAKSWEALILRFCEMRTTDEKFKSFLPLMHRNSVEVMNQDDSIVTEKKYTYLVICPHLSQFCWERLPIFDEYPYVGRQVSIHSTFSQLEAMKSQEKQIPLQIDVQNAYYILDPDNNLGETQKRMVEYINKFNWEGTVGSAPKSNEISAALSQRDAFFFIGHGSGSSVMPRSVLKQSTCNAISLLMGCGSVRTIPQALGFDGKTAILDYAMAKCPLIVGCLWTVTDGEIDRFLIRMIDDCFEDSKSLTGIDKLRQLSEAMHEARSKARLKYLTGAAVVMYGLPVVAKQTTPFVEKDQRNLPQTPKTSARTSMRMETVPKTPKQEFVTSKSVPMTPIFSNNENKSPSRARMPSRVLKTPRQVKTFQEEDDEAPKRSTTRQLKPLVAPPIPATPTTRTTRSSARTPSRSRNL
Assay: SEC-MALS; 1 mg/ml purified complex on Superose 6 10/300; 50 mM sodium phosphate, 100 mM NaCl, 20 mM NaF, 10% glycerol, 5 mM 2-mercaptoethanol, 3 mM sodium azide, pH 8.0
Conditions: both partners purified

B1: full-length C. elegans securin (co-expressed with StrepII-tagged separase) (natural protein, UniProt Q18235 1-244, looked up)
chain: MEDLNFEERGSTQIPASLQQHFSAKLGRQNELEKTPSRGGLGLVVNSSKTPGGKSLQSLASACKVPPSTKKNTIPIAFECYEDETDDQIADVATIKKTEKHPCSPIDTANRCETFDSLAADIEDDMLNLEDQDVVLSEDRPYGDVIDPAESEAEALAELGVEEWDSYPPIDPASRIGDDFNYVLRTEDFAEEGDVKLEETRHRTVIADIDEVKMSKAERNELFSMLADDLDSYDLLAEEANLPL
notes: it may be the same construct as m2; also called securin FL; source: Sf9 insect cells, co-expressed with StrepII-separase; in soluble lysate (pull-down) and purified as complex (StrepTactin, SEC)
Q: Which “stoichiometry N” value does the source give for B1 here?
A: The value was 1.
